These are literature values, as cited in article PMC3526805.

For the series, the target named is C3b C3b (Homo sapiens) (UniProt P01024).

pKd: −log10 of the molar value.

Sequence of UniProt P01024 (P01024 566-670): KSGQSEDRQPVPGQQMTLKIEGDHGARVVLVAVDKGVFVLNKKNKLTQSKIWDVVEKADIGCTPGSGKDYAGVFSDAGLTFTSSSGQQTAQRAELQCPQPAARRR

What is called pKd is the negative decadic logarithm of the Kd, by convention in mol/L. As to “Factor H four regulatory domains (from UniProt P08603)”, the pKd is 5.00.
